Experimental data from publication PMC11169541 (2024).

T1: SARS-CoV-2 N protein (nucleocapsid) peptide on HLA-A*02:01 (human)
T1 peptide: RTATKAYNV

T2: SARS-CoV N protein (nucleocapsid) peptide on HLA-A*02:01 (human)
T2 peptide: RTATKQYNV

B1: TCR-2 (TCR)
alpha TRAV4*01 TRAJ34*01 CDR3: CLVGDVDTDKLIF
beta TRBV20-1*05 TRBJ1-6*01 CDR3: CSASHPGDSPLHF
B2: TCR-4 (TCR)
alpha TRAV17*01 TRAJ27*01 CDR3: CATDEDTNAGKSTF
beta TRBV4-1*01 TRBJ1-1*01 CDR3: CASSPDPWGVDTEAFF

Legend:
[1] = biological target: T1, SARS-CoV-2 N protein (nucleocapsid) …; assay: multimer staining
[2] = biological target: T2, SARS-CoV N protein (nucleocapsid) …; assay: multimer staining

Row | Binder | binding result [1] | binding result [2]
1 | B1 | recognises | no recognition
2 | B2 | recognises | no recognition
